Reference: CN116284426A

Experiments:
[1] = molecular target: CD3εδ-ECD-his (CD3εδ异二聚体蛋白) (UniProt P07766); assay: ELISA, CD3εδ-ECD-his coated at 1 ug/mL (Table 20)
[2] = molecular target: CD3εδ-ECD-his (CD3εδ异二聚体蛋白) (UniProt P07766); assay: ELISA, CD3εδ-ECD-his coated at 1 ug/mL, anti-human IgG Fab HRP (Table 15)

EC50 [1]: 0.118 nM
EC50 [2]: 0.13 nM
B1: SP34 (humanized anti-CD3 monoclonal antibody) (antibody, human IgG1, kappa, V domains shown)
VH: EVQLVESGGGLVQPGGSLRLSCAASGFTFNTYAMNWVRQAPGKGLEWVARIRSKYNNYATYYADSVKDRFTISRDDSKNTLYLQMNSLRAEDTAVYYCVRHGNFGNSYVSWFAYWGQGTLVTVSS
VL: QAVVTQEPSLTVSPGGTVTLTCRSSTGAVTTSNYANWVQQKPGQAPRGLIGGTNKRAPGVPARFSGSLLGGKAALTLSGAQPEDEAEYYCALWYSNLWVFGQGTKVEIKR
